In the supplement of paper PMC10126150:
± gives the standard deviation of the averaged measurements.

Test system: ATP
Assay: switch fluorescence ratio, 500 uM ATP over buffer (Cy3 cluster intensity, sum of 5 cycles each) (fold (ratio)); higher = stronger signal-on switching upon ATP binding; sequences stand for … in TCGTCGGCAGCGTCAGATGTGTATAAGAGACAGTTTTTTTTTTTTTTTTTTTTTTTTT…TC
Conditions: aptamer strand: ATP DNA aptamer (quencher-CACCTGGGGGAGTATTGCGGAGGAAGG + anchor), 100 nM annealed; ATP concentration: 500 uM
Summary of the method: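 For every switch-domain sequence, the fluorescence ratio is the mean of per-cluster values, each being summed target-cycle Cy3 intensity over summed buffer-cycle Cy3 intensity. Clusters outside 100-1000 RFU were excluded. On a modified Illumina MiSeq flow-cell, the Cy3-labelled switching-strand clusters were annealed to 100 nM quencher-labelled ATP aptamer, imaged in selection buffer and then after 15 min with 500 uM ATP at 22 °C. Five such cycles were run, with NaOH stripping and re-annealing between them.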
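Also: ATP exposure 15 min at 22 °C before imaging.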

Row | Sequence | switch fluorescence ratio
1 | AAAGGAGAGC | 0.973 ± 0.087
2 | GTGGAGGCGC | 0.989 ± 0.023
3 | TCGTTTAGGA | 0.974 ± 0.031
4 | TGATTTGGGT | 1.01 ± 0.021
5 | GCTACCTGGT | 1.02 ± 0.013
6 | TTATAGGTTA | 1.02 ± 0.015
7 | GGGGGATCCG | 0.983 ± 0.019
8 | AGTGGGTGCT | 1.02 ± 0.039
9 | AAAACGTAAC | 1.25 ± 0.1
10 | CTCATTGTTG | 0.992 ± 0.014
11 | TGAGATTATT | 1.01 ± 0.038
12 | GACGAAGTTG | 1.01 ± 0.029
13 | TGCCTCGGCG | 1.0022 ± 0.00021
14 | ACCCAAAAAG | 1.05 ± 0.12
15 | TCGTTAATGT | 1.01 ± 0.035
16 | CTGACAGCGG | 1.06 ± 0.033
17 | TGAGGTTTGG | 1.02 ± 0.028
18 | AATTTTGGCT | 0.964 ± 0.03
19 | GTTTGTTCGG | 0.995 ± 0.015
20 | AGGTGATTCT | 1.04 ± 0.025
21 | CCTTTTCGAG | 1.037 ± 0.0025
22 | CATGGGCGGG | 0.983 ± 0.022
23 | TTCGCATAAT | 1.62 ± 0.3

Row | Sequence | switch fluorescence ratio
24 | GACGAGCCAG | 1.002 ± 0.0066
25 | TTGCGAGCTT | 0.986 ± 0.061
26 | ATGTGTCGTC | 1.01 ± 0.057
27 | TCGAGTCTTT | 0.998 ± 0.015
28 | AACGTTGTTG | 0.976 ± 0.044
29 | ACACAGTATT | 1.0263 ± 0.00076
30 | GATATCGCCG | 1.022 ± 0.0034
31 | TTTGTTGCTT | 0.989 ± 0.012
32 | CATATTTTTG | 0.996 ± 0.013
33 | TTCGGAAAGA | 1.013 ± 0.0082
34 | AGGCTCGTAC | 1.08 ± 0.09
35 | TCCATTGGTG | 1.2 ± 0.025
36 | CGGGGTTGTT | 0.9882 ± 0.0067
37 | TGACCGAATT | 1.03 ± 0.054
38 | ATCTTTCCTG | 1.053 ± 0.0087
39 | TTGCCAAGTG | 1.01 ± 0.02
40 | TAAGGGTTAA | 0.994 ± 0.012
41 | AAAGTGATGT | 0.969 ± 0.02
42 | CTAACTTGCG | 0.995 ± 0.014
43 | TGGGGTTGCC | 0.96 ± 0.026
44 | GCCATCGATC | 1.017 ± 0.0079
45 | CTTAAGGGCC | 1.02 ± 0.012
46 | GCCTTTAGGG | 1 ± 0.024

Row | Sequence | switch fluorescence ratio
47 | GTTGGGAGCA | 1.004 ± 0.0072
48 | CTTCTTTGGG | 1 ± 0.024
49 | TGAATGGGGT | 0.987 ± 0.02
50 | ATATGAAAAT | 1.01 ± 0.032
51 | CCGGGTTACT | 1.91 ± 0.044
52 | AGGGACTGGG | 0.993 ± 0.038
53 | AAAGGTAATA | 1 ± 0.025
54 | CGCGATATGG | 1.49 ± 0.17
55 | GGTCCGGTTC | 1.01 ± 0.025
56 | TCGAAGTTGT | 1.01 ± 0.022
57 | TGATTGATTG | 1.03 ± 0.066
58 | TATTAATAGT | 1.01 ± 0.024
59 | GTGAGCCGTT | 1.04 ± 0.025
60 | TGAGTGTTAC | 1 ± 0.028
61 | TTACGTCCGT | 1.04 ± 0.02
62 | CCTGCATTTT | 1.3 ± 0.33
63 | GATTATAAGG | 1.007 ± 0.01
64 | AGCCAGGGAG | 1.028 ± 0.0056
65 | TTTAGGGGG | 1.04 ± 0.067
66 | TTAAGGGCTT | 1.01 ± 0.021
67 | TATACTGTAA | 1.14 ± 0.031
68 | CGTTGCGAGT | 0.9726 ± 0.009
69 | ATATGCGGGG | 0.949 ± 0.011

Row | Sequence | switch fluorescence ratio
70 | TTGTTTAGGC | 1.1 ± 0.027
71 | ATGGGCGCGG | 0.9903 ± 0.0066
72 | TGATTGAGCC | 0.998 ± 0.047
73 | GGGGGACTGC | 1.01 ± 0.048
74 | TGATGTGGCG | 0.994 ± 0.041
75 | ATTATAGTTT | 1.03 ± 0.049
76 | GATGCGTGCT | 0.993 ± 0.055
77 | AGCGTGTAGG | 1 ± 0.15
78 | ACATATTTTA | 1.03 ± 0.016
79 | AGGGGGGTAA | 0.993 ± 0.026
80 | TTGGGAAATA | 1.01 ± 0.024
81 | ATATCCCTGG | 1.11 ± 0.013
82 | TGTTTTTGT | 1.18 ± 0.29
83 | GCCAGGGAAA | 0.9958 ± 0.0046
84 | CTTTACCTAC | 1.327 ± 0.0078
85 | GGAGTGACGG | 0.9979 ± 0.0024
86 | TCTAGATAAA | 1.04 ± 0.052
87 | CCATCAGGG | 1.16 ± 0.042
88 | GTTTTCGTCG | 1.01 ± 0.054
89 | ATGTGTGGT | 0.959 ± 0.023
90 | TTTTGTGTCA | 0.969 ± 0.029
91 | GGAGTGTGGG | 0.986 ± 0.019
92 | TCGGTTTTAA | 1.01 ± 0.036

Row | Sequence | switch fluorescence ratio
93 | ATTTGGTTGT | 0.958 ± 0.021
94 | GTGTTATAGT | 0.993 ± 0.024
95 | ACCAGGTGAT | 4.78 ± 0.26
96 | ATTTAGTGTT | 1 ± 0.024
97 | TTCTGCTGCT | 1.02 ± 0.02
98 | TCCTGTTCCT | 1.02 ± 0.062
99 | TGGGTCGCCG | 0.964 ± 0.012
100 | GGGGTTAATT | 1 ± 0.026
101 | GTGATCCCCG | 1.006 ± 0.0041
102 | GAGTTAGTGG | 1.01 ± 0.041
103 | AGGTTGGAGG | 0.976 ± 0.018
104 | CAATTTCTGG | 0.973 ± 0.015
105 | GGGTATCGTT | 0.965 ± 0.027
106 | ATTCCTAACA | 1.008 ± 0.0089
107 | TGTTGATAGT | 1 ± 0.023
108 | CGAGTGTCGG | 0.984 ± 0.02
109 | TTCATCATAG | 1.05 ± 0.029
110 | TCTAGATGGT | 0.992 ± 0.025
111 | TAAGTTGTAT | 1 ± 0.035
112 | TCGGGTCTGT | 0.979 ± 0.025
113 | CATGTGATGG | 1.06 ± 0.044
114 | TCAAAAAATG | 1.01 ± 0.042
115 | TGCACTCTCA | 1.04 ± 0.032

Row | Sequence | switch fluorescence ratio
116 | AGTTAACATG | 0.978 ± 0.016
117 | TTTTTTTATC | 1.01 ± 0.027
118 | GGGTCTTGAC | 0.9858 ± 0.0045
119 | GACGTTAGCT | 1.03 ± 0.012
120 | ATTCCTAGGT | 1.33 ± 0.45
121 | TGTCTGGGGT | 1 ± 0.019
122 | TGAGATCACT | 1 ± 0.013
123 | TTTGATTTGT | 1.042 ± 0.0087
124 | TATCAGGGGT | 1.08 ± 0.073
125 | GGGGGTTTGT | 0.983 ± 0.011
126 | CTGCGGGATT | 1.02 ± 0.026
127 | TATGCAACTT | 0.993 ± 0.015
128 | TATTTCTGCT | 1.04 ± 0.033
129 | CAGGGGCGGC | 0.923 ± 0.064
130 | GGTAGAGTAA | 1 ± 0.033
131 | GCGTTCGGCA | 0.991 ± 0.026
132 | GTTTGAGTTG | 1.01 ± 0.038
133 | TGAGTGGGG | 0.975 ± 0.05
134 | ATTCCGGTCT | 0.978 ± 0.011
135 | CAGTTTTATT | 0.992 ± 0.022
136 | ACTATAATCA | 1.04 ± 0.026
137 | AGATTGGTTA | 0.992 ± 0.021
138 | TTCGGGGTGC | 2.17 ± 1.6

Row | Sequence | switch fluorescence ratio
139 | AAAATTTATT | 0.989 ± 0.018
140 | ACGCTTTTTT | 1.01 ± 0.024
141 | GTGTCATTTT | 0.991 ± 0.025
142 | CGTTAGCAGA | 1.19 ± 0.086
143 | CCCTCACTTA | 1.08 ± 0.049
144 | TATAAGTTTT | 0.9823 ± 0.0096
145 | CTGATGTCGC | 1.074 ± 0.0034
146 | TATCATAAGT | 1.016 ± 0.0077
147 | TCCTGGTTTT | 0.996 ± 0.046
148 | CTGTCTGGTG | 1.025 ± 0.0087
149 | CTGTGGTTTT | 0.98 ± 0.034
150 | GAGTGAGTTA | 0.977 ± 0.032
151 | TCCTAGCGCC | 2.02 ± 0.2
152 | AACGTGGCGT | 1.023 ± 0.0066
153 | AGTGGGGCTT | 0.985 ± 0.043
154 | CTGTCGTAAA | 1.07 ± 0.019
155 | GCTATTGTGT | 0.9858 ± 0.0036
156 | GGGTGCATCG | 1.004 ± 0.0046
157 | TAGTGATTAA | 1.02 ± 0.044
